# Numbering of substitutions follows the chain as printed. Names may count otherwise.
# T1: Biotin-FcγRIIB (human, UniProt P31994 43-217, limits assumed, biotin-labelled)
# T1 construct: Bought, biotin-labelled; used at 1 µg/ml for staining and sorting; also called human FcγRIIB; CD32b
# T1 sequence (looked up): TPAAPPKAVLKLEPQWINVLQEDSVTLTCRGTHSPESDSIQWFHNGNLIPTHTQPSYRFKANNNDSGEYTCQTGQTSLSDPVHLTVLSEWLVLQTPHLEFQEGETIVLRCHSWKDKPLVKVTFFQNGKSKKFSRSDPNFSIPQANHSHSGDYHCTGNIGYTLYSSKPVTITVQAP
# B1: human IgG2 anti-mouse CD40 surface displayed antibody, Fc mutant P271G/T299W (antibody, name in EU numbering)
# light chain (with the P2A rest): DTVLTQSPALAVSPGERVTISCRASDSVSTLMHWYQQKPGQQPKLLIYLASHLESGVPARFSGSGSGTDFTLTIDPVEADDTATYYCQQSWNDPWTFGGGTKLELKRTVAAPSVFIFPPSDEQLKSGTASVVCLLNNFYPREAKVQWKVDNALQSGNSQESVTEQDSKDSTYSLSSTLTLSKADYEKHKVYACEVTHQGLSSPVTKSFNRGECGSGATNFSLLKQAGDVEENPG
# heavy chain: EVQLVESDGGLVQPGRSLKLPCAASGFTFSDYYMAWVRQAPTKGLEWVASISYDGSSTYYRDSVKGRFTISRDNAKSTLYLQMDSLRSEDTATYYCGRHSSYFDYWGQGVMVTVSSASTKGPSVFPLAPCSRSTSESTAALGCLVKDYFPEPVTVSWNSGALTSGVHTFPAVLQSSGLYSLSSVVTVPSSNFGTQTYTCNVDHKPSNTKVDKTVERKCCVECPPCPAPPVAGPSVFLFPPKPKDTLMISRTPEVTCVVVDVSHEDGEVQFNWYVDGVEVHNAKTKPREEQFNSWFRVVSVLTVVHQDWLNGKEYKCKVSNKGLPAPIEKTISKTKGQPREPQVYTLPPSREEMTKNQVSLTCLVKGFYPSDIAVEWESNGQPENNYKTTPPMLDSDGSFFLYSKLTVDKSRWQQGNVFSCSVMHEALHNHYTQKSLSLSPGKLEPPPSTVSNMATVAVLVVLGAAIVTGAVVAFVMKMRRRNTGGKGGDYALAPGSQTSDLSLPDCKVMVHDPHSLA
# notes: as m1; positions are Eu numbers; copies: 2 + 2
# B2: human IgG2 anti-mouse CD40 surface displayed antibody, Fc mutant S267M/P271G (antibody, name in EU numbering)
# light chain (with the P2A rest): B1 light chain (with the P2A rest)
# heavy chain: B1 heavy chain with S262M, W294T
# notes: as for B1
# B3: human IgG2 anti-mouse CD40 surface displayed antibody, Fc mutant V266A/P271G (antibody, name in EU numbering)
# light chain (with the P2A rest): B1 light chain (with the P2A rest)
# heavy chain: B1 heavy chain with V261A, W294T
# notes: as for B1
# B4: human IgG2 anti-mouse CD40 surface displayed antibody, Fc mutant P271G/T299S (antibody, name in EU numbering)
# light chain (with the P2A rest): B1 light chain (with the P2A rest)
# heavy chain: B1 heavy chain with W294S
# notes: as for B1
# B5: human IgG2 anti-mouse CD40 surface displayed antibody, Fc mutant P271G/S298N (antibody, name in EU numbering)
# light chain (with the P2A rest): B1 light chain (with the P2A rest)
# heavy chain: B1 heavy chain with S293N, W294T
# notes: as for B1
# B6: human IgG2 anti-mouse CD40 surface displayed antibody, Fc mutant S267A/P271G (antibody, name in EU numbering)
# light chain (with the P2A rest): B1 light chain (with the P2A rest)
# heavy chain: B1 heavy chain with S262A, W294T
# notes: as for B1
# B7: human IgG2 anti-mouse CD40 surface displayed antibody, Fc mutant G327L (antibody, name in EU numbering)
# light chain (with the P2A rest): B1 light chain (with the P2A rest)
# heavy chain: B1 heavy chain with G266P, W294T, G322L
# notes: as for B1
# B8: human IgG2 anti-mouse CD40 surface displayed antibody, Fc mutant L328V (antibody, name in EU numbering)
# light chain (with the P2A rest): B1 light chain (with the P2A rest)
# heavy chain: B1 heavy chain with G266P, W294T, L323V
# notes: as for B1
# B9: human IgG2 anti-mouse CD40 surface displayed antibody, Fc mutant L328G (antibody, name in EU numbering)
# light chain (with the P2A rest): B1 light chain (with the P2A rest)
# heavy chain: B1 heavy chain with G266P, W294T, L323G
# notes: as for B1
# B10: human IgG2 anti-mouse CD40 surface displayed antibody, Fc mutant L328R (antibody, name in EU numbering)
# light chain (with the P2A rest): B1 light chain (with the P2A rest)
# heavy chain: B1 heavy chain with G266P, W294T, L323R
# notes: as for B1
# B11: human IgG2 anti-mouse CD40 surface displayed antibody, Fc mutant H268S (antibody, name in EU numbering)
# light chain (with the P2A rest): B1 light chain (with the P2A rest)
# heavy chain: B1 heavy chain with H263S, G266P, W294T
# notes: as for B1
# Target: Biotin-FcγRIIB (human) (UniProt P31994)
# Assay: FACS sorting of displayed Fc library on biotin-FcγRIIB, NGS
row,Molecule,Increased factor b Site 2 (point mutation/wild-type)
1,"human IgG2 anti-mouse CD40 surface displayed antibody, Fc mutant S298R",0.8
2,"human IgG2 anti-mouse CD40 surface displayed antibody, Fc mutant S298D",1.6
3,"human IgG2 anti-mouse CD40 surface displayed antibody, Fc mutant T299W",0.5
4,"human IgG2 anti-mouse CD40 surface displayed antibody, Fc mutant T299S",0.6
5,"human IgG2 anti-mouse CD40 surface displayed antibody, Fc mutant I332E",1.1
6,"human IgG2 anti-mouse CD40 surface displayed antibody, Fc mutant T299A",0.4
7,"human IgG2 anti-mouse CD40 surface displayed antibody, Fc mutant I332T",1.6
8,"human IgG2 anti-mouse CD40 surface displayed antibody, Fc mutant S298G",1.2
9,"human IgG2 anti-mouse CD40 surface displayed antibody, Fc mutant G236V",0.5
10,"human IgG2 anti-mouse CD40 surface displayed antibody, Fc mutant D270H",1.3
11,"human IgG2 anti-mouse CD40 surface displayed antibody, Fc mutant P271W",0.4
12,"human IgG2 anti-mouse CD40 surface displayed antibody, Fc mutant P329S",1.2

# Target: T1, Biotin-FcγRIIB
# Assay: as above
Molecule,Enrichment factor (after/before sorting),Increased factor a (enrichment factor/wild-type enrichment factor)
B1,9.23,12.3
B2,4.31,7.52
B3,8.63,15
B4,12,16
B5,18,24
B6,5.27,9.19

# Target: T1, Biotin-FcγRIIB
# Assay: FACS sorting of displayed Fc library on biotin-FcγRIIB, NGS; reference P271G
Molecule,Increased factor 2 c Site 1 (combined/point mutation),Increased factor 2 c Site 2 (combined/point mutation)
B1,2.6,–
B2,–,1.6
B3,–,3.2
B4,3.4,–
B5,5.1,–
B6,–,1.9

# Target: T1, Biotin-FcγRIIB
# Assay: magnetic sorting on biotin-FcγRIIB with unlabelled activating FcγRs, NGS; Library4
# Procedure: (§1) 3T3 cells were collected by trypsin digestion, and a single cell suspension was prepared. […] The cells were incubated for 15 minutes on ice and then washed twice with MACS buffer and re-suspended in 100 μl MACS buffer. Twenty-five μl anti-Biotin magnetic beads were added, and the cells were incubated for 15 minutes on ice and then washed once with MACS buffer and re-suspended to 500 μl, and added to the LS column put in the magnetic field. The effluent was collected, washed with 3 mL of MACS buffer and collected; The LS column was then removed out of the magnetic field, and 5 mL of MACS buffer was used to rapidly elute the remaining cells from the sorting column to collect positive cells, which are the high I/A ratio cells.
# The high-FcγRIIB-affinity cells obtained from the above flow cytometry sorting are further sorted by magnetic-activated sorting. The cells are incubated with the mixture of Biotin-labeled FcγRIIB and non-labeled activating FcγRs, and then the labeled cells are sorted by anti-Biotin magnetic beads. The enrichment ratios after sorting relative to before sorting are analyzed by NGS.
Molecule,Enrichment factor (percentage after sorting/percentage before sorting),Increased factor (mutation enrichment factor/wild-type enrichment factor),Percentage after sorting/unbinding percentage,Percentage before sorting/unbinding percentage
B7,3.77,4.28,3.8,1.01

# Target: T1, Biotin-FcγRIIB
# Assay: magnetic sorting on biotin-FcγRIIB with unlabelled activating FcγRs, NGS; LibraryMix #3
# Procedure: as §1
Molecule,Enrichment factor (percentage after sorting/percentage before sorting),Increased factor (mutation enrichment factor/wild-type enrichment factor),Percentage after sorting/unbinding percentage,Percentage before sorting/unbinding percentage
B8,2.31,2.04,25.4,11
B9,3.01,2.67,–,–
B10,5.3,4.69,30.8,5.82
B5,2.31,2.04,11.9,5.17
B11,7.85,6.95,–,–

# Source: patent publication US20230220042A1 (SHANGHAI JIAO TONG UNIVERSITY SCHOOL OF MEDICINE, published 2023)
